Assay results as given in US20080112961A1.

Columns and labels:
[1] = biological target: soluble monomeric FcγRIIIA, the extracellular region of FcγRIIIA joined to the linker-AVITAG sequence (UniProt P08637); test: BIAcore, Ab on BSA-FITC
[2] = biological target: FcγRIIB-Fc fusion protein, soluble dimer: extracellular domain of FcγRIIB fused to the hinge-CH2-CH3 domain of human IgG2 (human) (UniProt P31994); test: BIAcore, Ab on BSA-FITC
[3] = biological target: soluble monomeric FcγRIIIA, the extracellular region of FcγRIIIA joined to the linker-AVITAG sequence (UniProt P08637); test: ELISA
[4] = biological target: FcγRIIB (form not stated) (UniProt P31994); test: ELISA
FcγRIIB (form not stated), sequence (P31994 43-217 limits assumed): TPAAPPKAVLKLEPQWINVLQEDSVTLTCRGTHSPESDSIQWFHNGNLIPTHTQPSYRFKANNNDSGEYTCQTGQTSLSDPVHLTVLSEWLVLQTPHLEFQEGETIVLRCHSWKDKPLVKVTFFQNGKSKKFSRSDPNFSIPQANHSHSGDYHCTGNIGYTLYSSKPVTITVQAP

FcγRIIB-Fc fusion protein, soluble dimer: extracellular domain of FcγRIIB fused to the hinge-CH2-CH3 domain of human IgG2 (human), sequence (P31994 43-217 limits assumed): as above

Row | Kd [1] | Kd [2] | ELISA, OD [3] | ELISA binding, fold vs Wt [4] | Substance
1 | 0.0754 µM |  |  |  | ch4-4-20 Mut 14 (K334E, K288N) (from UniProt P01857 1-330) (antibody)
2 | 0.264 µM | 0.0665 µM | 0.6 OD |  | ch4-4-20 Mut 6 (S219V) (from UniProt P01857 1-330) (antibody)
3 |  |  | 0.5 OD |  | ch4-4-20 wild type (from UniProt P01857 1-330) (antibody)
4 |  |  |  | 9 X | ch4-4-20 MGFc 28 (N315I, A379M, D399E) (antibody)
5 | 0.128 µM |  |  |  | ch4-4-20 Mut 10 (P396L, A330S, K288N) (from UniProt P01857 1-330) (antibody)
